B1: ELF3 (parent)
chain: LSKEYWDCLEGKKSKHAPRGTHLW
B2: BTBD10 (parent)
chain: FVYENAKEGARNIRTSERVTLIVD

Variants of: B1
Test: protein stability index of a GFP-peptide fusion (GPS, HEK-293T) (PSI 1-6); higher = more stable
Settings: c terminus: a fixed tail appended
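Further: lentivirally expressed fusions sorted by FACS into six bins by GFP to DsRed ratio, PSI derived from sequencing read proportions per bin multiplied by bin number.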

Protein stability index, by site and new letter:
S2: H 3.04 | G 3.12 | I 2.26 | A 2.59 | C 2.29 | N 3.13 | E 3.59 | Q 2.78 | L 1.91 | T 2.98 | D 3.11 | R 2.48 | M 2.48 | K 2.28 | P 2.99 | Y 1.91 | F 2.26 | V 2.36
D7: A 2.28 | C 2.32
Y5: G 2.92 | V 2.34 | K 3.19 | N 3.45 | W 2.66 | M 3.38 | H 3.85 | E 3.62 | C 2.91 | F 3.23 | I 2.65 | L 2.19 | Q 2.45 | A 3.23 | S 3.3 | D 3.41 | R 3 | P 3.37 | T 2.66
W6: A 3.6 | Q 3.43 | S 3.44 | P 3.82 | I 2.96 | C 3.38 | T 3.97 | M 3.56 | H 2.33 | N 3.42 | G 2.84 | V 3.13 | E 3.66 | L 3.08 | D 3.93 | Y 3.22 | R 3.39 | F 3 | K 3.65
E4: T 2.87 | I 2.65 | P 2.35 | W 1.58 | D 2.8 | V 2.53 | H 1.89 | R 1.86 | A 2.23 | K 2.11 | L 2.06 | C 4.2 | Y 2.16 | M 2.56 | G 1.99 | N 2.84 | S 2.38 | Q 1.74 | F 2.13
L1: I 2.37 | S 2.67 | W 1.97 | M 2.06 | D 3.2 | A 2.79 | E 3.35 | C 2.42 | R 2.96 | Q 2.71 | K 3.02 | P 1.86 | V 2.77 | N 2.63 | Y 2 | H 2.16 | G 3.33 | T 2.53
K3: L 2.57 | I 2.29 | A 2.7 | T 2.83 | G 2.02 | P 2.56 | W 2.35 | N 2.97 | E 2.97 | F 2.1 | M 2.33 | C 2.55 | R 2.93 | Q 2.13 | Y 2.6 | D 2.69 | S 2.61 | H 2.78 | V 2.1

Variants of: B2
Test: as above
Settings: c terminus: a fixed tail appended

Protein stability index, by site and new letter:
S16: C 2.02 | M 2.28 | Q 2.18 | L 1.39 | T 1.89 | D 2.33 | E 2.57 | R 2.34 | W 2.1 | K 2.09 | F 1.58 | P 2.33 | I 2.38 | A 1.99 | G 2.41 | Y 2.44 | V 1.34 | N 2.64 | H 1.78
E17: I 2.25 | G 3.65 | P 1.54 | K 2.18 | R 1.46 | V 3.52 | C 3.19 | Y 2.24 | A 2.17 | L 3.89 | T 1.23 | H 1.8 | Q 1.87 | D 1.74 | M 2.82 | N 2.22 | F 3.19 | S 1.91
I22: Q 2.31 | G 1.72 | S 2.67 | E 3 | T 2.41 | A 1.76 | Y 1.81 | H 2.2 | C 2.33 | V 2.92 | L 1.72 | W 3.09 | K 2.34 | N 2.72 | P 2.89 | F 2.06 | D 2.96 | M 2.77 | R 2.24
R14: T 2.14 | G 1.99 | P 1.85 | S 2.33 | K 1.68 | N 2.32 | E 2.18 | V 2.05 | H 1.99 | L 1.55 | D 2.33 | F 2.38 | M 2.04 | A 2.17 | W 2.87 | I 2.02 | Y 2.85 | Q 2.08 | C 1.83
V23: C 2.15 | D 2.39 | L 2.07 | H 2.26 | P 3.05 | Q 2.47 | W 1.4 | T 2.16 | N 2.92 | Y 1.7 | K 2.06 | I 1.82 | E 2.89 | A 2.26 | R 2.68 | G 2.11 | M 2.04 | S 2.25 | F 1.99
D24: M 1.95 | R 1.93 | F 2.88 | S 1.18 | V 2.35 | C 1.91 | L 2.03 | T 2.5 | I 2.95 | W 3.12 | G 1.82 | E 1.65 | A 1.49 | K 1.72 | H 1.66 | Q 2.03 | P 2.06 | N 1.95 | Y 2.01
L21: M 1.99 | Y 1.89 | T 2.07 | F 1.88 | R 2.14 | A 2.34 | C 2.32 | Q 2.83 | H 2.11 | P 2.03 | K 2.6 | S 2.32 | N 2.63 | V 1.64 | I 1.57 | W 2.56 | G 2.56 | D 3.07 | E 2.79
I13: V 2.06 | T 2.4 | Q 2.38 | W 1.68 | L 2.5 | M 1.64 | S 2.44 | H 2.4 | Y 2.37 | R 2.4 | K 2 | P 2.21 | N 2.52
T15: E 2.48 | L 1.47 | N 2.11 | I 1.68 | C 1.91 | R 2.06 | Q 2.68 | Y 1.39 | A 2.26 | M 1.97 | D 2.37 | H 2.15 | S 2.38 | G 2.36 | F 1.99 | P 1.81 | K 2.25 | V 1.75
R18: S 1.89 | M 1.97 | Q 1.79 | T 1.98 | A 1.77 | N 2.07 | K 2.1 | L 1.83 | C 1.83 | I 1.66 | G 2.31 | P 2.31 | E 2.29 | W 2.27 | V 1.69 | F 2.16 | D 2.61 | Y 1.44 | H 1.98
V19: P 2.73 | Y 2.35 | G 2.21 | T 2.39 | R 2.34 | W 1.53 | H 2.35 | M 1.62 | Q 2.6 | I 1.61 | D 2.48 | E 2.86 | S 2 | F 2.27 | K 1.91 | N 2.43 | C 2.49 | L 2 | A 2.45
T20: M 1.82 | R 1.81 | F 2.63 | W 3.5 | H 2.06 | S 2.27 | Y 1.81 | V 1.38 | C 2.74 | Q 2.18 | A 1.73 | P 3.04 | K 2.07 | D 1.92 | G 1.59 | N 2.56 | I 1.84 | E 2.06 | L 1.48

Reference: the supplement of paper PMC10567573
